Tested on: NSG-SGM3×IL15 mice humanized with human PBMCs
Test: Cytokine release syndrome (CRS) induction in PBMC-humanized mice, serum cytokine levels
Format: in vivo, mouse
Source text: FIGS. 9A-9C show comparisons of TNF (FIG. 9A), IL-6 (FIG. 9B), and IL-2 (FIG. 9C) levels in NSG-SGM3 mice and NSG-SGM3×IL15 mice engrafted with 5×10^6 human PBMCs per mouse.
FIGS. 10A-10C show comparisons of IFN-γ (FIG. 10A), TNF (FIG. 10B), and IL-6 (FIG. 10C) levels in NSG-SGM3 mice and NSG-SGM3×IL15 mice engrafted with 1×10^6 or 2×10^6 human PBMCs per mouse, with two different doses of irradiation (150 and 175 cGy).
NSG-SGM3×IL15 and NSG-SGM3 mice humanized with human PBMCs and then dosed with various drugs to induce cytokine release syndrome (CRS). Briefly, the mice were irradiated (100 cGy) and administered PBS, OKT3, Anti-CD28, or a CD19×CD3 BiTE.
The use of lower levels of PBMCs for humanization was also tested. Briefly, NSG-SGM3×IL15 and NSG-SGM3 mice were irradiated (150 cGy or 175 cGy) and administered human PBMCs intravenously (1×10^6/mouse or 2×10^6/mouse) on day 0. On day 12, mice were dosed with PBS or OKT3 and serum cytokine levels were analyzed.

OKT3: drug dosed to induce cytokine release syndrome; known to induce cytokine release
serum cytokine levels (TNF, IL-6, IL-2) (NSG-SGM3×IL15 mice as compared to NSG-SGM3 mice, irradiated 100 cGy, 5×10^6 human PBMCs per mouse, FIGS. 9A-9C): higher cytokine levels | serum cytokine levels (IFN-γ, TNF, IL-6) (irradiated 150 cGy or 175 cGy, 1×10^6 or 2×10^6 human PBMCs per mouse, dosed on day 12, drug vs PBS control, FIGS. 10A-10C): greater difference between the drug (OKT3) and control (PBS)

— patent US20250057128A1, “HUMANIZED MOUSE MODELS” (The Jackson Laboratory, priority 2021, published 2025)
